Test results published in article PMC10391610, “Survivin prevents the polycomb repressor complex 2 from methylating histone 3 lysine 27” (iScience, 2023).

Tests used:
Assay in all cases: peptide or protein array; PEPperCHIP microarray of 15 amino acid peptides with 10 amino acid overlap, immobilised; survivin at 1 μg/ml (53.5 nM monomer) in incubation buffer; stained with 6x His Tag Antibody DyLight680; LI-COR Odyssey read-out
[1] = target: microarray peptides covering EED 128–152 (human)
[2] = target: microarray peptides covering EZH2 172–211 (human)
[3] = target: microarray peptides covering JARID2 170–194 (human)
[4] = target: microarray peptides covering SUZ12 573–597 (human)
[5] = scale: % of maximum fluorescence intensity units

survivin (His-tagged, from pHIS8), sequence (O15392 whole entry): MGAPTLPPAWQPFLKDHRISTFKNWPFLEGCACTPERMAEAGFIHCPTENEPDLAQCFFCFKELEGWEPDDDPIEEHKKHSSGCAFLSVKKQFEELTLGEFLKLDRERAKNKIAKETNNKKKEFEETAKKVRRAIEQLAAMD

survivin (His-tagged, from pHIS8) (from UniProt O15392 1-142) (natural protein)
Integrated FI (units of the maximum FI per peptide) [1]: 0.31 | Average FI (%) [1, 5]: 10 | Integrated FI (units of the maximum FI per peptide) [2]: 4.28 | Average FI (%) [2, 5]: 71 | Integrated FI (units of the maximum FI per peptide) [3]: 3 | Average FI (%) [3, 5]: 100 | Integrated FI (units of the maximum FI per peptide) [4]: 0.6 | Average FI (%) [4, 5]: 20
